Experimental data reported in the RNAGym collection of RNA variant scans (doi:10.1073/pnas.2313332121).
Variants at the floor of the assay were thinned out.

B1: TPR 5TU (parent)
chain: GGAUCUUCUCGAUCUAACAAAAAAGACAAAUCUGCCACAAAGCUUGAGAGCAUCUUCGGAUGCAGAGGCGGCAGCCUUCGGUGGCGCGAUAGCGCCAACGUUCUCAACUAUGACACGCAAAACGCGUGCUCCGUUGAAUGGAGUUUAUCAUG

Variants of: B1
Assay: polymerase ribozyme fitness, log enrichment relative to wild type (log ratio); higher = more active; in vitro selection for triplet polymerase activity
In short: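 Fitness compares each genotype's enrichment to that of the wild type on a logarithmic scale, averaging replicates with inverse-variance weights. The logarithm is base 2. Enrichment came from Illumina sequencing of input and output libraries after one triplicate round of in vitro selection, which included frozen incubation at −7 °C, of PCR-built, transcribed mutant libraries of each subunit of a heterodimeric triplet polymerase ribozyme. Only genotypes with ≥10 input reads and ≥1 read per output were kept.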

Variant	polymerase ribozyme fitness (log ratio)
U45A A49U	≤ -4.2
C43U G58A U90C C132A G143U	≤ -4.2
U45A A52C G71A C99A G133U U145G	≤ -4.2
U45A G50U G83U C87U C103U C105A	≤ -4.2
U45G A66C C76A G86U C96U	≤ -4.2
U45C G48C C99A G143A U148C	≤ -4.2
U45A G117U	-3.08
U44A U104A A115G	≤ -4.2
U44A A49U C54U G59U G92A A106U	≤ -4.2
C43G C69A	≤ -4.2
C43U G50C C75G C79G G84A	≤ -4.2
U45C G80C C85U C87G G92A U144G	≤ -4.2
U45G A66U U77C A107G G117U	≤ -4.2
C43U A49C C96A A107C A113U	≤ -4.2
G42U A106C	-4.17
G42C U45A A52C U77G C85A C116G	≤ -4.2
U44A A49G	≤ -4.2
U44A A49C	-4.06
U45G C76A G86A G141C C149G	≤ -4.2
U44G G58C C87G	≤ -4.2
G42U U53C C95G	≤ -4.2
U45A C51U G74A C95A U135G	≤ -4.2
G42U A60G U61G C96G C99G C125U A150C	≤ -4.2
U45A G88C	≤ -4.2

Variant	polymerase ribozyme fitness (log ratio)
U44A C85U U139C	≤ -4.2
G42U U45G U53C G88U A137C	≤ -4.2
U45A A73U	≤ -4.2
U45A A142G	-2.94
G42U G59U G84A C85U C103G A119G	≤ -4.2
C43A C75U A106U C108U C123G G141A	≤ -4.2
U44C C85A A91U U127G	≤ -4.2
U45A G84A A115C	-3.88
U45A A66U G71A	≤ -4.2
U45A A52U U56A C76U	≤ -4.2
C43U G46C G83U	≤ -4.2
U45G C87U U101C	-3.99
U44A G58A C93U C96G A97G A98U A119G U144C A150U	≤ -4.2
U45A U148G C149G	≤ -4.2
C43U G59C U77A U111C	≤ -4.2
C43U C103G	≤ -4.2
U44A C85A G92A A107U G128U	≤ -4.2
U45G A52G U82C U101G C131U	-3.32
G42C U45A G48U A49C C75U C118G U144C	≤ -4.2
U44A G83U	-3.94
U44G C51U G74A G94C A120U C149G	≤ -4.2
U44G A52C U77C G83A C99A C118A U145G	≤ -4.2
U44G A89U U144C	≤ -4.2
U44C C96U C103G A115C	-4.19

Variant	polymerase ribozyme fitness (log ratio)
C43U C79A	-4.15
U45A U102C C105U A119C G143A	≤ -4.2
U45G A47U A49C U61A C76A C87A U146G	≤ -4.2
U44G C75U A89G	≤ -4.2
U45A C76U A98U G100C U101G A106U	-4
U44G A52C G92U G141A	≤ -4.2
U44A U53G C105U C116G G141C	≤ -4.2
U44A G88A A120G	≤ -4.2
U44A G88A A120U	≤ -4.2
U45A C116U	-2.44
U45G A47C A142G	-3.91
U44A G80A A138U A150G	≤ -4.2
U44A U82G G84C C87G A113C C118U	≤ -4.2
U44A G48C C87A A115U C125A	≤ -4.2
U45G C54U A110G	≤ -4.2
G42C U55A G70C C96U	≤ -4.2
C43U C75A C79U G86U C87U G117U A150C	≤ -4.2
U44A G62U G80C G140C	≤ -4.2
U45A U55A C93U	-3.88
U44C G94C U146A	≤ -4.2
U45A G140U	-4.19
G42C U55A A66G U144A	≤ -4.2
C43A C57G G84A	≤ -4.2
U44A G50C U53A C87A A106G A107U	≤ -4.2

Variant	polymerase ribozyme fitness (log ratio)
U45A C99A A106U A121U C149G G152A	-4.01
U44A U53C G86A A147C	≤ -4.2
U44A C87A U90C C93G C105G A122G	≤ -4.2
U45A A73G G83C C85U	≤ -4.2
U45A G46C U56A G84U G88U U90G C99A	≤ -4.2
U44G U134C	-4.1
U45A C63U A121C	-3.18
C43G C105A C123G U148A	≤ -4.2
G42U U45A U56A G83A A121U	≤ -4.2
C43U A47G A64C G67U C96U G141A	≤ -4.2
U45A C69A G88C A97C C125G	≤ -4.2
U45C U77G C79G	≤ -4.2
U44A C72U A73G G86U A138C	≤ -4.2
U44A U55A C63G C85U C87G G92U	≤ -4.2
U44G U45G C72G	≤ -4.2
U44A C51U C76U C95A	≤ -4.2
G42C U45G U146C	≤ -4.2
C43G G94A	-3.81
U45G C54A C87G A121U C123G	≤ -4.2
C43U G83U G92A	≤ -4.2
G42C U90C U109A	≤ -4.2
U45A A91C C95G A142U	≤ -4.2
U44G U56A C79A G124U	≤ -4.2
U44A C57G C69G G80C U82A C108A U109G G141C	≤ -4.2

Variant	polymerase ribozyme fitness (log ratio)
U44A U77A C95A G143A	≤ -4.2
C43A U53G U56G A97U A137G	≤ -4.2
U44A G80A A121U U144A	≤ -4.2
C43U C51A C85U A107U U135C	≤ -4.2
G42U A47G C99G C116U	≤ -4.2
U44G C93U A137G U148C	≤ -4.2
G42U G65A C95U U139G	≤ -4.2
U45G C69A	-1.95
U45A G83U C85G C95U	≤ -4.2
U45C U55A	-1.08
U45G C57U G70C C76A A91G C93A	≤ -4.2
C43U A52U C85G G133U	≤ -4.2
C43A U53A U55A G74A C76A G88U A142G	≤ -4.2
C43G C57A G59C C72A C79A A138G U145A	≤ -4.2
U44G G58U A98G U144A	≤ -4.2
C43A G88A	≤ -4.2
C43A U44A C118U	-4.17
U45C A119C	-0.959
U45A G67C G84U C108U A120U	≤ -4.2
U44A G88C	≤ -4.2
C43A C57G U78G C96A A113G	≤ -4.2
U44A G48A G58C G83A	≤ -4.2
C43U G48A C57G C85U	≤ -4.2
C43A A73G G83A A89U U90C G136C G141C	≤ -4.2

Variant	polymerase ribozyme fitness (log ratio)
U44A C75G C96U	-4.08
G42C U44G A49U U56C G94U U111C G143A	≤ -4.2
G42U U44A C54A G88U	≤ -4.2
C43U U55A C87U	≤ -4.2
G42U U56A C75G A91U G126A U144A	≤ -4.2
C43G C87U U109G	≤ -4.2
C43U A138C	≤ -4.2
U45G C85G	-3.44
U45C C93A	-3.52
C43U C96G	≤ -4.2
C43G U55A U61G G86A A89G A122U	≤ -4.2
U44A A89U G92C C95U	≤ -4.2
U45A A52G U82G A115G G136U G141A U151G	≤ -4.2
C43A A47C U53A A91G	≤ -4.2
U44A C76U G86U A121U	-3.86
G42U C76G G80A C95G	≤ -4.2
U45C G70C A91G C99U G136C	≤ -4.2
C43A U45G U90A U102G G140A A147C	≤ -4.2
U45C U56A A91G U111A	≤ -4.2
U45A G58C	-2.28
U45A G58A	-1.48
U45A C85U	-3.1
U45A C69A C95U C99G G112U C114U A147U	≤ -4.2
U45G A91C U101G A147C	≤ -4.2

Variant	polymerase ribozyme fitness (log ratio)
C43U A91U A98G C99U U102G	≤ -4.2
C43U U56A C72A C85A	≤ -4.2
U45G C75U C103G C118G	≤ -4.2
C43U G62A A119U U134A	≤ -4.2
U45A C72U	≤ -4.2
U45A G133A U134C	≤ -4.2
G42C U82G U104A C116U A137G G152A	≤ -4.2
U44G A91C G126A G143C	≤ -4.2
G42C U56G C114U U127A A138C	≤ -4.2
G42U A47C C87A U104G A107G	≤ -4.2
U44A G58U G70C C76A A91G A115C	≤ -4.2
C43U A106G	≤ -4.2
U44A U53A G58U G83U U102G A122U	≤ -4.2
C43G U56G C96U U139G U148G	≤ -4.2
G42U G84U G117U C118G A142G	≤ -4.2
C43G G86U U139C	-4.11
U45A C93U A147U	-2.81
C43A G50A C72U G84U U90A C103A G141U	≤ -4.2
U44A C75U C76G U77G G92U A115U G140A G152C	≤ -4.2
C43U G58C C95A U102C C103G C105G A110U	≤ -4.2
U44A A47C	≤ -4.2
U44C G59U G92A U135A	≤ -4.2
C43U U45A C63U G81A C95G U111A	≤ -4.2
